Measurements published in article PMC5691071, “Single molecule multiplexed nanopore protein screening in human serum using aptamer modified DNA carriers”.

Molecular target: acetylcholinesterase (AChE) (UniProt O42275 24-633)
Assay: single-molecule nanopore; 100 pM lambda DNA carrier also carrying TBA probe and thrombin, 100 mM KCl; Nanopore: 100 mM KCl Tris-EDTA, pH 8, 45 min incubation; EMSA thrombin: 140 mM NaCl, 20 mM MgCl2, 20 mM PBS pH 7.4, 45 min; EMSA AChE: 2.7 mM KCl, 4 mM MgCl2, PBS pH 7.4, 1 h; temperature not stated
Conditions: protein: commercial; chain copies: 4; free oligo in EMSA

acetylcholinesterase (AChE), sequence (O42275 24-633): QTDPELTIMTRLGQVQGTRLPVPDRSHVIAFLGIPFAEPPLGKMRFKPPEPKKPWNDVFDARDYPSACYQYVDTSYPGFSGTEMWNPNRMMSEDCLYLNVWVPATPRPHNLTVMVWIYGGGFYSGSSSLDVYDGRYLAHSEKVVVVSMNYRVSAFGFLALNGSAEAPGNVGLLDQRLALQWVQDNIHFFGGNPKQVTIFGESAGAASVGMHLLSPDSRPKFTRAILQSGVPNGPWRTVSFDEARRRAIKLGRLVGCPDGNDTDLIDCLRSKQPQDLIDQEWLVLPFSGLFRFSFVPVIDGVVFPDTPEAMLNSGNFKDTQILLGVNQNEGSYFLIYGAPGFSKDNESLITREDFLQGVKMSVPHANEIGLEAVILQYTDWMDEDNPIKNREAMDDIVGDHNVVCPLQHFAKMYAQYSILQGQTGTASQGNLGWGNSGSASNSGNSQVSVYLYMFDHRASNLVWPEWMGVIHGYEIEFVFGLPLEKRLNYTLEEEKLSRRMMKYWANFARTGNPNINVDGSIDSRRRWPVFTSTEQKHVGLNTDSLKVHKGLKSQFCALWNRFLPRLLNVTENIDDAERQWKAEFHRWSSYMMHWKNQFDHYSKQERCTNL

B1: Target ii AChE probe (75 nt) (mixed)
DNA: GGTTGACTGTAGCTCTGGCAGACGTAGTGTGAAGGTACCGGGCGGCGACCTAAGGTGTCGTGCGTAAGTTTTTAA
B1: binds.
